Patent US20100189713A1 (Biogen, published 2010)

Experiments:
[1] = biological target: T1, full-length mouse plexin-A2 protein, N-terminal myc-tag, stably expressed on L cells (mouse, UniProt P70207 35-1894); experiment: AP-fusion binding to L cells stably expressing plexin-A2, colorimetric AP activity of cell lysates
T1 construct: whole, on cells; also called plexin-A2 expressing L cells
Protocol: In order to show the binding of Sema6A to Plexin-A2, L-cells that stably express the full-length mouse plexin-A2 proteins were incubated with 250 μl of HBSS with 0.5 mg/ml BSA, 0.1% NaN₃, and 20 mM HEPES, pH 7.0 (HBHA solution) containing 1% FBS and the AP-Sema6Aect-Fc recombinant proteins (the culture supernatant) for 1 h on ice as described in Flanagan and Leder, Cell 63: 185-194 (1990). After removal of the HBHA solution, cells were treated with 250 μl of 10 mM Tris-HCl, pH 8.0, supplemented with 0.1% Triton X-100 to dissolve the recombinant proteins bound to the cell surface. The cell lysates were subjected to colorimetric analysis to measure AP activity as described in Flanagan and Leder, Cell 63: 185-194 (1990) and Flanagan et al., Methods Enzymol 327: 17-35 (2000).
It was shown that the Fc-dimerized recombinant AP-tagged ectodomain of Sema6A bound with a high affinity to plexin-A2 expressing L cells. […] 25: 3628-3637 (2005).

[2] = biological target: T2, plexin-A2A396E expressed in COS7 cells (mouse, UniProt P70207 35-1894); experiment: AP-fusion binding assay on transfected COS7 cells
T2 construct: whole, on cells; Same point mutation as in NMF454 mice, made by site-directed mutagenesis; also called mutated plexin-A2A396E; NMF454 mutation
Protocol: This plexin-A2A396E cDNA was then expressed in COS7 cells, and its ability to bind Sema6A-AP was tested using the same method shown in Example 8. See Suto et al. Neuron 53: 5354 (2007).

T2 sequence (P70207 35-1894 A396E): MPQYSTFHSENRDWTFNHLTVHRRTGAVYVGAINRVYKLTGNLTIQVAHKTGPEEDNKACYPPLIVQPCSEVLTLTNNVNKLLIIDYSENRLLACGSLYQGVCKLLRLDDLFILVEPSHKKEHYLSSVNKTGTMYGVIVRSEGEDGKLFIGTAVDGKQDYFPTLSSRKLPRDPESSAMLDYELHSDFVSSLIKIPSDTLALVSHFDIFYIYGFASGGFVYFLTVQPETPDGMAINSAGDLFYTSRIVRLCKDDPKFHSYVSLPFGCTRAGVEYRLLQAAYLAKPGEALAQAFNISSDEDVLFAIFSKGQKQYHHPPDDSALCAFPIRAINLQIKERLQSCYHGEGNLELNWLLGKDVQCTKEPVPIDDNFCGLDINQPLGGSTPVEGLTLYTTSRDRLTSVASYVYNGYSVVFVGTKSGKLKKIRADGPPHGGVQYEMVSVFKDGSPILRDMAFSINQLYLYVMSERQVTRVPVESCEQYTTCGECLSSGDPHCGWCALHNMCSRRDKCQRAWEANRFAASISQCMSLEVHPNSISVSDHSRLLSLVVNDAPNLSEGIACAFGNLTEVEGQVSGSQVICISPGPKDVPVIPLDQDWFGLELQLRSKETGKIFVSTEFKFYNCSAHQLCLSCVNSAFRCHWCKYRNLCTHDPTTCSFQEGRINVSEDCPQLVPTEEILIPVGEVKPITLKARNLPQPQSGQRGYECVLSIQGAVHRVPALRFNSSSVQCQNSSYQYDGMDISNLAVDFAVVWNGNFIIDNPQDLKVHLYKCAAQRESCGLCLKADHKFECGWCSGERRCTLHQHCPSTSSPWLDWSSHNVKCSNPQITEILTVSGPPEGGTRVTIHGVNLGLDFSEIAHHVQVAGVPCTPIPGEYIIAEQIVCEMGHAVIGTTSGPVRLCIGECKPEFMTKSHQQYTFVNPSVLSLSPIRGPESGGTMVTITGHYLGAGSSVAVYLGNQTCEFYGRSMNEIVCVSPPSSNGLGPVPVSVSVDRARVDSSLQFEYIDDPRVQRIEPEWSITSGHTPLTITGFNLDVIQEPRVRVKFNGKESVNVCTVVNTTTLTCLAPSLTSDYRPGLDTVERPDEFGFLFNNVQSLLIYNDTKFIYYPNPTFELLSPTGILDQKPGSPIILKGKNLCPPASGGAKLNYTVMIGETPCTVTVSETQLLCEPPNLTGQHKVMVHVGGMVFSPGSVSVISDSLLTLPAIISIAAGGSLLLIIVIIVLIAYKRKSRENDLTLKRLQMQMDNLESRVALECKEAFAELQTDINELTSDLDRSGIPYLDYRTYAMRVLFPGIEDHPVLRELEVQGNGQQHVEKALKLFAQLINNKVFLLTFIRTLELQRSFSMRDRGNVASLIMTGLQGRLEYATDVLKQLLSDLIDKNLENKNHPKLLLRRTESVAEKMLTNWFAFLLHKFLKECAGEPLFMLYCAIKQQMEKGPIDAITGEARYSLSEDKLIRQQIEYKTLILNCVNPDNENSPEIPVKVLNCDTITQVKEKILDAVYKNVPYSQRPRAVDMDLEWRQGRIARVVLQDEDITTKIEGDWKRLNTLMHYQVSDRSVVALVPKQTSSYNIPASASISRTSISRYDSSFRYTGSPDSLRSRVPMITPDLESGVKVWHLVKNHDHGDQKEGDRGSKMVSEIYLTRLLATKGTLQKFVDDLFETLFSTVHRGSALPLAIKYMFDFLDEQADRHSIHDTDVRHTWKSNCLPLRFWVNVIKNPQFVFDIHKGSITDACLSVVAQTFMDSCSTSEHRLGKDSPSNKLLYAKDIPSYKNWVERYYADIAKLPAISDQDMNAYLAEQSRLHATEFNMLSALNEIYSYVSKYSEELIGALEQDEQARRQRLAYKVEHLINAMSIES
T1 sequence (P70207 other isoform, or with tags, fused parts or gaps): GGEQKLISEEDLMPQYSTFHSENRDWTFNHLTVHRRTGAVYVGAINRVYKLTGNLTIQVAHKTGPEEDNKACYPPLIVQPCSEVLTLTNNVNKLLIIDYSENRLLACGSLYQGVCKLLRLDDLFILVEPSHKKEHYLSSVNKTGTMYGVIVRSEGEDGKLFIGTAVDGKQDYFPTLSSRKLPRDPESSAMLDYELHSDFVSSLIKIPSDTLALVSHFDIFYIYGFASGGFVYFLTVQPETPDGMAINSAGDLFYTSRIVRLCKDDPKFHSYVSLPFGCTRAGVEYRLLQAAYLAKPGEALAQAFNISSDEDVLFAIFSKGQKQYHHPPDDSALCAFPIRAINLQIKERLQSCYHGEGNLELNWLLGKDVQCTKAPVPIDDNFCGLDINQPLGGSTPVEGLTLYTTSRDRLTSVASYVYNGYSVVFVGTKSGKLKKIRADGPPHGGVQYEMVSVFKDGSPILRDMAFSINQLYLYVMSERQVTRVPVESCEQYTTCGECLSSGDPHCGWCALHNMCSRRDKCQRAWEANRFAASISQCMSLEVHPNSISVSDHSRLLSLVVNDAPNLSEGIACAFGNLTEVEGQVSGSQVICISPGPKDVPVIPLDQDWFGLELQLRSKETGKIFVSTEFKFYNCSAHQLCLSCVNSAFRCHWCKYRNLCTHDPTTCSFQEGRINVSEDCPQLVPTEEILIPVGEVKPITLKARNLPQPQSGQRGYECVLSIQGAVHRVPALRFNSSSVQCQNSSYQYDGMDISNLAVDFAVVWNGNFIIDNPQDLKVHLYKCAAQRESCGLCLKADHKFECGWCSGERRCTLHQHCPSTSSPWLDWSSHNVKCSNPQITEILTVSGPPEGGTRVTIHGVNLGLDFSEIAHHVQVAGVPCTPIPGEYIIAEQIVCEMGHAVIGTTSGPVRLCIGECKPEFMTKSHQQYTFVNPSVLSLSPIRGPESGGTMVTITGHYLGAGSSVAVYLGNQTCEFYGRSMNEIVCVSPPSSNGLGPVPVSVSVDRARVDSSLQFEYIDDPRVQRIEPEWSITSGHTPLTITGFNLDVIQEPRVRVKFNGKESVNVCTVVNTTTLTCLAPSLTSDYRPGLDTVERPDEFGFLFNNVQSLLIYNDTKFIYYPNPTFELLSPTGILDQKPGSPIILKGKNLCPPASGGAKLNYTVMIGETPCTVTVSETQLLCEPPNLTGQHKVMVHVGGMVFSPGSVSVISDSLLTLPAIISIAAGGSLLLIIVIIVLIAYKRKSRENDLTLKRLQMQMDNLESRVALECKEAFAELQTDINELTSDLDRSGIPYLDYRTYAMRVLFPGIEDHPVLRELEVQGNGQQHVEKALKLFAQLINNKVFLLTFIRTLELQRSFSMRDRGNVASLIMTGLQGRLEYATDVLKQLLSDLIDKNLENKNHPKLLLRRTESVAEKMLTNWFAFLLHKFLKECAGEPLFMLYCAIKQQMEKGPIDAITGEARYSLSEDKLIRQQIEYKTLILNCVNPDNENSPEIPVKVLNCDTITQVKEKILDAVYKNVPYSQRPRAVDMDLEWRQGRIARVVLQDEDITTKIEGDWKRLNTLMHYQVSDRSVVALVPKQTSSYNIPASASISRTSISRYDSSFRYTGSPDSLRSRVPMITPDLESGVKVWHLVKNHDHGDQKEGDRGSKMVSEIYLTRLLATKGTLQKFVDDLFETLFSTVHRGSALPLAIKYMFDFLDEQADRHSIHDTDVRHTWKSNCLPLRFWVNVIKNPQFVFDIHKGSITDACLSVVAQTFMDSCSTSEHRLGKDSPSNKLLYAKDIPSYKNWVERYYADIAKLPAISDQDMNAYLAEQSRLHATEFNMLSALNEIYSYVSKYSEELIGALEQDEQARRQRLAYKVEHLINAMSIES

| Binder | Kd [1] | binding result [2] |
| --- | --- | --- |
| recombinant Fc-dimerized AP-tagged Sema6A ectodomain (AP-Sema6Aect-Fc) (Fc fusion, mouse, UniProt O35464 18-648, looked up, range 18-648; Used as culture supernatant of transfected HEK293T cells; also called Fc-dimerized recombinant AP-tagged ectodomain of Sema6A; not shown: alkaline phosphatase (AP) tag from the Aptag-4 vector; Fc from the pEF-Fc expression vector) AGFPEDSEPISISHGNYTKQYPVFVGHKPGRNTTQRHRLDIQMIMIMNRTLYVAARDHIYTVDIDTSHTEEIYCSKKLTWKSRQADVDTCRMKGKHKDECHNFIKVLLKKNDDTLFVCGTNAFNPSCRNYRVDTLETFGDEFSGMARCPYDAKHANIALFADGKLYSATVTDFLAIDAVIYRSLGDSPTLRTVKHDSKWLKEPYFVQAVDYGDYIYFFFREIAVEYNTMGKVVFPRVAQVCKNDMGGSQRVLEKQWTSFLKARLNCSVPGDSHFYFNILQAVTDVIRINGRDVVLATFSTPYNSIPGSAVCAYDMLDIANVFTGRFKEQKSPDSTWTPVPDERVPKPRPGCCAGSSSLEKYATSNEFPDDTLNFIKTHPLMDEAVPSIINRPWFLRTMVRYRLTKIAVDNAAGPYQNHTVVFLGSEKGIILKFLARIGSSGFLNGSLFLEEMNVYNPEKCSYDGVEDKRIMGMQLDRASGSLYVAFSTCVIKVPLGRCERHGKCKKTCIASRDPYCGWVRESGSCAHLSPLSRLTFEQDIERGNTDGLGDCHNSFVALNGHASSLYPSTTTSDSASRDGYESRGGMLDWNDLLEAPGSTDPLGAVSSHNHQDKKGVIRESYLKSNDQLVPV | 3.21 nM |  |
| Sema6A-AP (ligand, UniProt O35464 19-649, looked up, Printed only as 'Sema6A-AP'; Order of the pieces follows the printed label only; not shown: alkaline phosphatase (AP) tag) GFPEDSEPISISHGNYTKQYPVFVGHKPGRNTTQRHRLDIQMIMIMNRTLYVAARDHIYTVDIDTSHTEEIYCSKKLTWKSRQADVDTCRMKGKHKDECHNFIKVLLKKNDDTLFVCGTNAFNPSCRNYRVDTLETFGDEFSGMARCPYDAKHANIALFADGKLYSATVTDFLAIDAVIYRSLGDSPTLRTVKHDSKWLKEPYFVQAVDYGDYIYFFFREIAVEYNTMGKVVFPRVAQVCKNDMGGSQRVLEKQWTSFLKARLNCSVPGDSHFYFNILQAVTDVIRINGRDVVLATFSTPYNSIPGSAVCAYDMLDIANVFTGRFKEQKSPDSTWTPVPDERVPKPRPGCCAGSSSLEKYATSNEFPDDTLNFIKTHPLMDEAVPSIINRPWFLRTMVRYRLTKIAVDNAAGPYQNHTVVFLGSEKGIILKFLARIGSSGFLNGSLFLEEMNVYNPEKCSYDGVEDKRIMGMQLDRASGSLYVAFSTCVIKVPLGRCERHGKCKKTCIASRDPYCGWVRESGSCAHLSPLSRLTFEQDIERGNTDGLGDCHNSFVALNGHASSLYPSTTTSDSASRDGYESRGGMLDWNDLLEAPGSTDPLGAVSSHNHQDKKGVIRESYLKSNDQLVPVT |  | no binding |
